For one molecule, Kd results are on record in patent US7220822 (OHIO STATE UNIVERSITY, dated 2007).

For orientation: Kd means the constant that tells how readily two partners part at equilibrium. The low end stands for higher affinity, the high end for lower affinity.

This assay addresses T1, CD80-Ig (extracellular domain of CD80 fused with the constant region of mouse IgG1 heavy chain) (mouse).
T1 construct: extracellular domain; also called B7-1
The assay can be described thus: SPR (BIACORE), direct binding to immobilized CD80-Ig, linear regression plot. The method, then:
Binding experiments were performed by surface plasmon resonance (SPR) on an instrument sold under the trademark BIACORE™ from Pharmacia Biosensor (Uppasala, Sweden). All experiments were performed at 37° C. using HBS-EP buffer (25 mM Hepes, pH7.4, […], 3.4 mM EDTA and, 005% surfactant P20) supplied by Pharmacia Biosensor.
CD80-Ig (extracellular domain of CD80 fused with the constant region of mouse IgG1 heavy chain) at 35 µg/ml in 10 mM sodium acetate buffer, pH 4.2, was coupled to a research grade CM 5 sensor chip using a standard amine coupling procedure with the following modifications (38). To reduce the immobilization level of the ligand, the surface was activated for 3 (instead of 7) minutes with N-hydroxysuccinamide and […]. […] Following coupling, noncovalently bound ligand was removed by washing twice with 5 mM NaOH.
Data for both k_a and k_d are quite consistent over the entire range of concentrations used. The difference between experimental and calculated data for both EL CD28 and RI CD28 peptide mimetics estimated by Chi^2 value is low being close to the noise level of the instrument. A linear regression plot of the rate of change in the response against response units was plotted using these values of k_a and k_d for each CD28 peptide analyte.
In general terms: In SPR one partner is held on a chip, and binding of the other changes the refractive index at the surface.

For the molecule H-KIEFMYPPPYLDNERSNGTI-OH (also called Free L peptide) [L-CD28 (free L CD28 peptide mimetic)], the Kd stood at 2440 nM. This counts as single-digit micromolar.
